# The RNAGym collection of RNA variant scans (doi:10.7554/elife.80360)
# B1: Hairpin Ribozyme (parent)
# chain: GUCCUCUUUCACGUGCGCGUGAAAGAGAGAAGUGAACCAGAGAAACACACGUUGUGGUAUAUUACCUGGUA
# Variants of: B1
# Experiment: self-cleavage, relative activity (ratio to wild type); higher = more cleavage; co-transcriptional
row,Variant,self-cleavage
1,G13C G69A,0.214
2,G13C G69C,0.199
3,G13C G29A,0.106
4,G13U U62G,0.102
5,G13U U62C,0.291
6,U14G U53C,0.925
7,G15A U60A,0.767
8,U14G U52C,0.966
9,U14G U52A,1.02
10,U14G A59G,0.121
11,U14A A41C,1.34
12,U14A A41U,1.04
13,U14G C46A,0.113
14,U14G C46U,0.21
15,G15A A64U,0.233
16,G15A A64C,0.171
17,G13C G54C,0.161
18,G13C G54A,0.368
19,G15A C46A,0.132
20,G15A C46G,0.0897
21,G13U A64U,0.147
22,G13U A64G,0.533
23,G13U A64C,0.267
24,G13C A26G,0.492

row,Variant,self-cleavage
1,G13U A35U,0.83
2,U14A G51U,0.925
3,G15A U67A,0.188
4,U14A A71G,1.08
5,U14G A26G,0.781
6,G13A U58G,0.594
7,U14G G34A,1.05
8,U14C G21C,0.883
9,U14A C46G,0.108
10,U14A C46A,0.232
11,U14G G21U,0.625
12,G15A G54U,0.737
13,G13U C16U,0.818
14,U14C U70C,1.15
15,U14A U58A,0.792
16,U14A U58G,0.505
17,U14A U58C,0.78
18,G13U G29U,0.147
19,G13C A36G,0.816
20,G13C A36U,0.4
21,U14G U67G,0.243
22,U14C G19A,0.612
23,G13U A23G,0.675
24,U14C G25U,0.762

row,Variant,self-cleavage
1,U14C G17C,0.582
2,G15A G27A,0.541
3,G15A G42U,0.301
4,G15A G42C,0.294
5,U14A C18U,0.924
6,U14A G19U,0.736
7,U14A G19C,0.819
8,U14A A22C,0.829
9,G15A G25A,0.576
10,U14C C66A,0.223
11,U14A U20A,0.67
12,U14C A35C,0.687
13,U14G A44U,0.138
14,G13C G40U,0.158
15,G15C,1.03
16,G15A,0.906
17,G13C A43U,0.0989
18,G13C A43C,0.0516
19,G13C A43G,0.144
20,G13U A30G,0.191
21,U14A G25U,0.521
22,U14A G25A,0.56
23,U14C U60G,0.727
24,U14A G54U,0.471

row,Variant,self-cleavage
1,U14A G54A,0.581
2,G13C A64C,0.149
3,U14A A24C,0.703
4,G15A G57U,0.3
5,G15A G21C,0.798
6,G15A G21A,0.831
7,G13C U33A,0.0736
8,G13C U33G,0.207
9,G13C G17U,0.492
10,U14C A59C,0.0922
11,U14G G51U,1.02
12,U14C A28G,0.65
13,U14A A43C,0.15
14,U14A A47U,0.143
15,U14A A47C,0.482
16,U14A C48U,0.123
17,U14A A39U,0.408
18,U14A A39C,0.515
19,G13U U33C,0.102
20,G13U U33G,0.0972
21,U14A A26U,0.503
22,U14A A49U,0.13
23,G13C A30G,0.114
24,U14A G17C,0.472

row,Variant,self-cleavage
1,U14G U58G,0.464
2,G15A U20A,0.847
3,G15A U20C,0.864
4,G13U G19C,0.686
5,U14A G68C,0.25
6,U14A U55G,0.179
7,U14G G54U,0.491
8,U14G G54C,0.315
9,G13C U14A,0.688
10,G13C U14G,0.688
11,G13C G19U,0.752
12,U14G G15A,0.932
13,G13U A71C,1.22
14,G13U A71G,0.936
15,G13C U60A,0.579
16,U14G G42A,0.163
17,G13U G17C,0.494
18,G13C A71G,0.823
19,G13U G68C,0.19
20,G13U G15C,0.608
21,G13U G15A,0.491
22,U14G U60C,1.23
23,U14G C16G,0.548
24,U14G C16U,1.06

row,Variant,self-cleavage
1,U14G G68A,0.32
2,U14G G68U,0.333
3,G13U U53C,0.477
4,U14G A41U,1.05
5,U14G A47G,0.157
6,G13C U53A,0.747
7,U14G A31U,0.119
8,G13U C66G,0.11
9,G13U C66A,0.176
10,U14A A44U,0.118
11,U14G G19A,0.651
12,U14G G19C,0.842
13,U14A A64C,0.254
14,U14A A64G,0.589
15,U14A A64U,0.171
16,U14G A49C,0
17,G13U A45G,0.0663
18,G13C U63A,0.173
19,U14G A36C,0.729
20,U14C U53C,0.675
21,U14C U53A,1.18
22,U14C U53G,0.936
23,U14G A35G,0.715
24,U14G A35U,0.49

row,Variant,self-cleavage
1,U14G A35C,0.805
2,U14G A64G,0.407
3,G15A G32C,0.174
4,U14A U70A,0.863
5,U14A G15C,1.06
6,U14A G15A,1
7,U14A G15U,1.17
8,G13C C16U,0.573
9,U14C G34A,0.988
10,U14C G34U,1.54
11,G15A A24U,0.688
12,U14C C18G,0.957
13,G13U A28U,0.546
14,G13U A28G,0.725
15,G15A A36G,1.08
16,G15A A36C,0.815
17,G13U A26G,0.675
18,G13U U55C,0.254
19,G13U U55A,0.263
20,U14C C50U,0.265
21,U14C A44C,0.241
22,U14C A44U,0.0783
23,U14G A28U,0.39
